Assay results published in patent EP4772613A1 (GI Cell, Inc., dated 2026).

Legend:
[1] = biological target: T1, IL-2Rβ-his (Acro CD2-H5221) (UniProt P14784 27-239); assay: Octet BLI; IL-2Rβ-his on Ni-NTA sensor, analyte 2,000 to 31.25 nM
T1 construct: also called CD122; not shown: his tag
T1 sequence (looked up): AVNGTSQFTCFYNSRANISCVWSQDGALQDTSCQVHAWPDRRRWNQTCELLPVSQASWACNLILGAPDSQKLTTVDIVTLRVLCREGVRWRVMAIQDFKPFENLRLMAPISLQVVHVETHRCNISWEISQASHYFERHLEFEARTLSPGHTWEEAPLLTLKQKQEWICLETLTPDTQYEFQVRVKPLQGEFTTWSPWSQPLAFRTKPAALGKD

[2] = biological target: T2, IL-2Rβ and common γ chain on HEK-Blue CD122/132 cells (InvivoGen hkb-il2bg) (UniProt P14784 27-551; P31785 23-369, limits assumed); assay: cell-based or functional assay
T2 sequence (looked up) 1: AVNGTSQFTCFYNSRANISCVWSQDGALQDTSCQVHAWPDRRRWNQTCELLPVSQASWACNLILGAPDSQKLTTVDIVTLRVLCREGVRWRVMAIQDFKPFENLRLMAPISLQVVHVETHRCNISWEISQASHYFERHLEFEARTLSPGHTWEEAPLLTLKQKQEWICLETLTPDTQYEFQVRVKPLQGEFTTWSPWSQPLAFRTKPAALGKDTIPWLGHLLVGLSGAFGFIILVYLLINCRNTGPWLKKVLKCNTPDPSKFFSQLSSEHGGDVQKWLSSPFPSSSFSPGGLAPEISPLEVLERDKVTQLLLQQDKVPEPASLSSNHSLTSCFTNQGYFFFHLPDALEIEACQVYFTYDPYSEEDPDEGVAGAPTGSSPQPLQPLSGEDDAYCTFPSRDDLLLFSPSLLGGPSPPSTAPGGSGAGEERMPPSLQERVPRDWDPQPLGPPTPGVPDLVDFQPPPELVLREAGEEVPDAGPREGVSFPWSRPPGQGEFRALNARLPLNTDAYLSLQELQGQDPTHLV
T2 sequence (looked up) 2: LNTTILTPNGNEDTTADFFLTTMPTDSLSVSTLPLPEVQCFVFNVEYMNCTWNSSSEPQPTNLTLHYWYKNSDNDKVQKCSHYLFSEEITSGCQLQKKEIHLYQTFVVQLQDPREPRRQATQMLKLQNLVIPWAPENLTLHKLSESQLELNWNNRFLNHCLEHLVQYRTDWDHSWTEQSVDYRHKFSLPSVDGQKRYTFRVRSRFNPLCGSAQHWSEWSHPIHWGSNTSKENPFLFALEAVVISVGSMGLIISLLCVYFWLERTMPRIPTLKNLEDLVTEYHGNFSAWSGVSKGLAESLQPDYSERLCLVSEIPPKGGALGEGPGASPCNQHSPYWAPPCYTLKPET

B1: GIC-982C15 (IL-2/IL-15v8) (S76K) (Fc fusion)
chain: GSAESKYGPPCPPCPAPEAAGGPSVFLFPPKPKDQLMISRTPEVTCVVVDVSQEDPEVQFNWYVDGVEVHNAKTKPREEQFNSTYRVVSVLTVLHQDWLNGKEYKCKVSNKGLPSSIEKTISKAKGQPREPQVYTLPPSQEEMTKNQVSLTCLVKGFYPSDIAVEWESNGQPENNYKTTPPVLDSDGSFFLYSRLTVDKSRWQEGNVFSCSVLHEALHNHYTQKSLSLSLGGGGGSGGGGSITCPPPMSVEHADIWVKSYSLYSRERYICNSGFKRKAGTSSLTECVLNKATNVAHWTTPSLKCIRGGGGSGGGGSGGGGSGGGGSAPTSSSTKKTQLQLEHLLLDLQMILNGSMHIDATLYTESDVHPSCKVTAMKCFLLELQVISLESKNFHLRPRDLIKNINVIVLELKGSNGNVTESGCKECEELEEKNIVEFLNRWITFCQSIISTLT
- Kd [1]: 178 nM
- koff [1]: 0.000476 s⁻¹
- kon [1]: 2670 M⁻¹ s⁻¹
- EC50 (ng/ml), STAT5 activity, HEK-Blue CD122/132 reporter cells [2]: 134 ng/mL
